According to publication PMC9270970:

Biological target: SynNotch receptor (CD8a signal-Myc-LaG17-Notch1 minimal transmembrane core-tTA) (mouse) (UniProt Q01705)
UniProt Q01705, sequence (Q01705 whole entry): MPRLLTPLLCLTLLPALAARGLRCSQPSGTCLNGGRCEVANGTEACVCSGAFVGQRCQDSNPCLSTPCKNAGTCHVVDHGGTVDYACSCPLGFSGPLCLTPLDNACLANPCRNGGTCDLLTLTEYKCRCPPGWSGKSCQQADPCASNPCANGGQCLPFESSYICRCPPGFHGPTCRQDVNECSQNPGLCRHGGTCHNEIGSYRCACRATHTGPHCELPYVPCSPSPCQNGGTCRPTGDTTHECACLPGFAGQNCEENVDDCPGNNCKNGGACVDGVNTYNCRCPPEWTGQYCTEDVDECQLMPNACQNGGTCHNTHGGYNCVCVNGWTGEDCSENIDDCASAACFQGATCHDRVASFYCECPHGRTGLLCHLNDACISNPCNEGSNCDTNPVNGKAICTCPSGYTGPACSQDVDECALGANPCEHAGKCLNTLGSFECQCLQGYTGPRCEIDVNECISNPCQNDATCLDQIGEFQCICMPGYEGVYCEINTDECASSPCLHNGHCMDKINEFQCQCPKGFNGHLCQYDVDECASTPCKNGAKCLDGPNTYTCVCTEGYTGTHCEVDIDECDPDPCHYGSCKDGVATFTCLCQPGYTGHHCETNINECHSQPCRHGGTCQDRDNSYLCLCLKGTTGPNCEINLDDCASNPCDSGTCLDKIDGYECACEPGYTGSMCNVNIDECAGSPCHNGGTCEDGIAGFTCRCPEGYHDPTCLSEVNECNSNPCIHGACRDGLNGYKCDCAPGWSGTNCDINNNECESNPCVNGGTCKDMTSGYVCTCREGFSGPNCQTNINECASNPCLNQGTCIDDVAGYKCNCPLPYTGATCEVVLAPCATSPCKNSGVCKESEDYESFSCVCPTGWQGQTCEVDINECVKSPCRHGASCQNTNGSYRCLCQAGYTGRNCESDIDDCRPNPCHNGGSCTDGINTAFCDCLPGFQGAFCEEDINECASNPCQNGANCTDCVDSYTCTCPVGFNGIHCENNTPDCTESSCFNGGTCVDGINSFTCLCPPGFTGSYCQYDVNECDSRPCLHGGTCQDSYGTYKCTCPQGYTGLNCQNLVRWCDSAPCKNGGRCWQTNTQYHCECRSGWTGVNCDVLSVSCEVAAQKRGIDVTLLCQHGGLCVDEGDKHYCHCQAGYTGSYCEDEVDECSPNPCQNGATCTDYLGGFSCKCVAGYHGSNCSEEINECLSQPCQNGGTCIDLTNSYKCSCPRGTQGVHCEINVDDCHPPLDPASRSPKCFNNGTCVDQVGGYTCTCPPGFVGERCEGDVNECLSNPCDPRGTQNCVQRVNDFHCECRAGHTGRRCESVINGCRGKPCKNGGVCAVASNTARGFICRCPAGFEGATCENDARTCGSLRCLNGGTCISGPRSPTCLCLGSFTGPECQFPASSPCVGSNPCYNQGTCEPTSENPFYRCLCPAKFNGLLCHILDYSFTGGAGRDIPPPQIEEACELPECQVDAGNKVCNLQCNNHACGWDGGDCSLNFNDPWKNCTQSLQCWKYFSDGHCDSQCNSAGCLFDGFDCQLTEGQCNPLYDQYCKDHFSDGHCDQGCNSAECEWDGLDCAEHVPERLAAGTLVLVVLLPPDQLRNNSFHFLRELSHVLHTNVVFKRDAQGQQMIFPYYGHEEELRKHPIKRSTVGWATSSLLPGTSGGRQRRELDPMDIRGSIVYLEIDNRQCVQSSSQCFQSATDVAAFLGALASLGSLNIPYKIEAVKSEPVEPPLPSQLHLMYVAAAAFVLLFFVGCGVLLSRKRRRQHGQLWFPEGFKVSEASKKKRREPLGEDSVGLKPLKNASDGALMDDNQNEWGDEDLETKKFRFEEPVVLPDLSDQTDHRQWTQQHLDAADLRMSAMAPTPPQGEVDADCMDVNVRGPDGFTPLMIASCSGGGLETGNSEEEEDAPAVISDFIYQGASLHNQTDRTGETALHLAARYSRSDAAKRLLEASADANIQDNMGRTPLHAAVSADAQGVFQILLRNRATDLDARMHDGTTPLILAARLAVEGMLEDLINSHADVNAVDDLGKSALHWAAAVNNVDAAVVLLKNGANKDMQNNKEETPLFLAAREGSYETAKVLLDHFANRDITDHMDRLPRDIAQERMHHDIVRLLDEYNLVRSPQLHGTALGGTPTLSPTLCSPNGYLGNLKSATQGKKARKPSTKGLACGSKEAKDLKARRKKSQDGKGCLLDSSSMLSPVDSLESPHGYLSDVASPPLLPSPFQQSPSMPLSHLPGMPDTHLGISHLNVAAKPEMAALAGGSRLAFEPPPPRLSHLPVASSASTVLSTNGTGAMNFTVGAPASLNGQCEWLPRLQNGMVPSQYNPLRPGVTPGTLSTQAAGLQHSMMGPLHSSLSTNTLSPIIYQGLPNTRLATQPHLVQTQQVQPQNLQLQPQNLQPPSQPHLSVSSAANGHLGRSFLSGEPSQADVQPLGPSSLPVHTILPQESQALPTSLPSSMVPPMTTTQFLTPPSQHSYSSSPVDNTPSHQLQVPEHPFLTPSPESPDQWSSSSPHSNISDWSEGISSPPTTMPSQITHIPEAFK

percentage of STC receiver cells that induce mCherry after 24 h of co-culture with different proportions of sender cells (20% to 90% sender cells): > 90%
Substance: membrane-tethered extracellular EGFP (IgGK signal-EGFP-PDGFRB TMD) (ligand)
